Patent US20100087363A1 (YEDA RESEARCH AND DEVELOPMENT, published 2010)

Target: T1, LDL (low density lipoprotein; Biomedical Technologies, Inc) (UniProt P04114 28-4563)
T1 construct: LDL is a lipoprotein particle (avg. mass 2.5x10^6 Da) of lipid and protein, not a pure protein
Experiment: size exclusion chromatography (Superose 6) of a pre-incubated LDL + sLDLR mix (7 micromolar each); ratio of bound and free sLDLR peaks by sLDLR ELISA, assuming 5-fold dilution
Method: Therefore, we employed another method for testing the binding of sLDLR to LDL. For this purpose, we incubated for 1 h at 37° C. a solution of LDL (Biomedical technologies, Inc, Ma, USA) and r-hsLDLR of Example 5 at a final concentration of 7 micromolar each in PBS plus 10 micromolar Calcium Chloride (PBS+). An aliquot of 0.1 ml was subjected to size exclusion chromatography on a Superose 6 HR 10/30 column (GE Healthcare Life Sciences Cat. No 17-5172-01). The column was eluted with PBS+ at a flow rate of 0.4 ml/min and fractions of 0.5 ml were collected. The concentration of r-hsLDLR was determined by a specific ELISA as follows:
Mab #28 anti-human sLDLR (5 microgram/ml in PBS; corresponding to Mab from hybridoma clone 28 deposited at the CNCM under No. 1-2391-U.S. Pat. No. 6,849,720) was used for coating of 96-well ELISA plates at 0.1 ml/well overnight at room temperature. The plates were then washed ×3 with PBS containing 0.05% Tween-20 and then blocked by 0.3 ml blocking buffer (1% bovine serum albumin, 5% sucrose, 0.05% sodium azide in PBS). The plates were then washed 3× with PBS. […] The plated were then washed 3× with reagent diluent, a substrate solution (0.1 ml TMB/E, Chemicon) is added to each well and the plates were either read within 5 min at 630 nm or stopped with H₂SO₄ (2 N 0.05 ml) and read at 450 nm.

B1: recombinant human soluble LDL receptor, amino acid residues 25-352 of the LDLR precursor, expressed in CHO cells (receptor)
chain: not shown
modifications: N-glycosylated at Asn 272 of the LDLR precursor
notes: range 25-352; Produced in DHFR-deficient CHO cells (InterPharm Laboratories); also called sLDLR; r-hsLDLR
  Kd: ~0.01 µM
